Reference: the supplement of paper PMC12042874
± gives the uncertainty stated by the source.

Test: amyloid nucleation score (Sup35N fusion, yeast selection) (log enrichment); library NNK1; higher = more nucleation; inactive = no reads after selection
In short: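 Plasmid inserts were Illumina-sequenced at input and output from psi-negative yeast expressing Sup35N fused to peptides of 20 random codons. The yeast were induced with 100 μM copper sulfate for 24 hours and grown 7 days at 30°C on medium lacking adenine and uracil, and sequences with under 100 input reads were excluded. Nucleation score is the DiMSum log enrichment of output over input reads, centred on the mode score of non-aggregating sequences.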
For IATYCYLFSCWFIYVLT, the amyloid nucleation score was 0.992 ± 0.84.
KYKDFLGSISDLDWII gave an amyloid nucleation score of -0.464 ± 1.4.
In the case of LWLAVSSVNCHSRHLLVWVT, the amyloid nucleation score is reported as “inactive”.
Substance QCSLRPVPRKDALSFLGLML has an amyloid nucleation score of -0.363 ± 0.35.
In the case of SFVYS, the amyloid nucleation score is reported as -0.157 ± 0.4.
With VGSTKSDVTDFLDCMNGLEW the amyloid nucleation score was 0.462 ± 0.63.
With KTSNKWMIKRNYRAYGHCSV the amyloid nucleation score was -0.357 ± 0.37.
VNMSKHYRRGWGDDVATGVR showed an amyloid nucleation score of 0.693 ± 0.49.
VDLGRSKWCLTMYESYENGR showed an amyloid nucleation score of -0.127 ± 0.3.
For LCFGYKLIAKECVCAGRTES, the amyloid nucleation score was “inactive”.
Substance SCTWYKFWRKSIAMILAILS has an amyloid nucleation score of 0.169 ± 0.9.
Work on WCGKACFVYKSHGQGG yielded an amyloid nucleation score of 0.235 ± 0.53.
Substance MEVKISVRFQFVLI has an amyloid nucleation score of -0.355 ± 0.6.
For HLFRYSGTTSAV, the amyloid nucleation score was 0.386 ± 0.53.
With DRRSIAGFHCCWNSKVMVSP the amyloid nucleation score was -0.83 ± 0.88.
Work on TCRFIGEYLRIRYT yielded an amyloid nucleation score of 0.367 ± 0.58.
With IGYCSSGQNDPNIASLYCFH the amyloid nucleation score was -1.19 ± 0.81.
For HHIDPHDSFIS, the amyloid nucleation score was 0.711 ± 0.93.
LRRVRMEWSVVMHGQSENPE gave an amyloid nucleation score of 1.2 ± 0.35.
For WDWVYGKFLR, the amyloid nucleation score was 0.736 ± 0.26.
LCRILGSSPVHNLWLWGHGY showed an amyloid nucleation score of -0.363 ± 1.4.
For ELSLRSSISVGEPVRDP, the amyloid nucleation score was 1.14 ± 0.6.
Substance SEMHHCTRGG has an amyloid nucleation score of -0.167 ± 0.9.
Substance YLGQWFNYTCYQWVMV has an amyloid nucleation score of 1.37 ± 0.21.
SYTVFCRVWYDSHRFM gave an amyloid nucleation score of -0.066 ± 0.45.
For FNMIVSYAFVAFIVNIKVEI, the amyloid nucleation score was 1.99 ± 0.12.
In the case of RGWGELVVVNHLLRRGGGEG, the amyloid nucleation score is reported as -0.029 ± 0.69.
Work on NSDSIGIRVFDV yielded an amyloid nucleation score of 0.242 ± 0.99.
In the case of DTSNHEGE, the amyloid nucleation score is reported as -0.554 ± 1.7.
IIIACFVSCNELVGVSVIKT showed an amyloid nucleation score of 0.037 ± 0.25.
With TRLCFGFWAKIEWMRSVSGV the amyloid nucleation score was 0.082 ± 0.64.
In the case of NMTAYSRCSSRTWYTVVFSG, the amyloid nucleation score is reported as 1.71 ± 0.15.
For KVGYLYEAIGGKDDL, the amyloid nucleation score was -0.605 ± 1.1.
For CLIISRVVRSVTNIMEMNNG, the amyloid nucleation score was 0.251 ± 0.45.
VRIAPHKGPDRTSGVLLGRM showed an amyloid nucleation score of 0.838 ± 0.75.
SLFLMIVVYHVHVRALYILV showed an amyloid nucleation score of 0.531 ± 0.93.
For LSRVKSR, the amyloid nucleation score was 1.29 ± 0.62.
VLVDGSRSWGG showed an amyloid nucleation score of 0.952 ± 0.52.
For KAGRGICESYRSFHPRPVFA, the amyloid nucleation score was 0.034 ± 0.4.
Work on TLHYRWECVLCPACRYGLSD yielded an amyloid nucleation score of 1.14 ± 0.68.
Work on HWMFFYRDIFCVCVNSFL yielded an amyloid nucleation score of 4.17 ± 0.085.
In the case of APQSYVVVWFCVARKRCSWD, the amyloid nucleation score is reported as -0.303 ± 0.53.
For SMWTKKLFMFHNGI, the amyloid nucleation score was 0.201 ± 0.56.
With VCVNSENHNFT the amyloid nucleation score was “inactive”.
IPMPLCCVIPPWFTTFFVNQ gave an amyloid nucleation score of 4.81 ± 0.092.
EGICNYSSKYCQGMVLIGSS gave an amyloid nucleation score of -1.52 ± 1.5.
EFNDCGSLWFGFIRYIILMN gave an amyloid nucleation score of 0.081 ± 0.25.
SYSEYPHVEYLLLFSMTQWN showed an amyloid nucleation score of 0.43 ± 0.34.
For ALSFHYKNLVNT, the amyloid nucleation score was 0.027 ± 0.49.
KYYYWRRVPVCQKGDLF gave an amyloid nucleation score of 0.095 ± 0.31.
With DESFCVVLFFFLCCLWFCHL the amyloid nucleation score was 0.184 ± 0.7.
LVILVVFGKRY gave an amyloid nucleation score of -0.139 ± 0.41.
Work on WIMKGY yielded an amyloid nucleation score of -0.123 ± 1.1.
In the case of KMIPMTYASKVLKCRLFEVK, the amyloid nucleation score is reported as 1.14 ± 0.76.
EMKATIHLMLKINNTWFSVP showed an amyloid nucleation score of 2.07 ± 0.11.
CVMVVSF gave an amyloid nucleation score of 0.934 ± 0.42.
Work on ICICLMLSVIGSSSHVLLDW yielded an amyloid nucleation score of 1.08 ± 0.72.
In the case of FPEHVPVSVYVCYRGYGRRV, the amyloid nucleation score is reported as -0.589 ± 0.61.
In the case of IISISINGSVRWSCTRSGAD, the amyloid nucleation score is reported as 0.499 ± 0.53.
ACDLNIIWADNSDYLIYVIS showed an amyloid nucleation score of 0.341 ± 0.36.
Substance LQWEVSSLNVLRFPRNMERC has an amyloid nucleation score of 0.289 ± 0.4.
For MNQLTFRTNRPPSTASVFAR, the amyloid nucleation score was 1.01 ± 0.61.
For FICGDLNCQQTSSFCFLDYS, the amyloid nucleation score was 7.296 ± 0.051.
Substance YMFVMEKARTSIYLSMRNYC has an amyloid nucleation score of -0.419 ± 0.39.
